# Positions count from the first letter of the chain named. Numbers in names are those of the source. Where “and” joins values, the source holds several entries; their conditions need not be identical. Equal values may be shown once.
# B1: xiRB49-P125T (antibody, V domains shown)
# VH: QVQLQQPGAALVKPGASVKLSCKASGYTFISYWMLWVKQRPGRGLEWIGRIDPDSGGTKYNEKFKSKATLTVDKSSSTAYMQLSSLTSEDSAVYYCAREGDYAWFAYWGQGTLVTVSA
# VL: DVLMTQTPLSLPVSLGDQASISCRSSQSIVHSNGNTYLEWYLQKPGQSPKLLIYKVSNRFSGVPDRFSGSGSGTDFTLKISRVEAEDLGVYYCFQGSHVPWTFGGGTKLEIK
# B2: recombinant RB49 (reRB49) (antibody, V domains shown)
# VH: B1 VH with T115P
# VL: B1 VL
# B3: Rendomab B49 (RB49), murine mAb purified from hybridoma (antibody, V domains shown)
# VH: B1 VH with T115P
# VL: B1 VL
# Target: T1, endothelin B receptor (ETB) (UniProt P24530 27-442)
# T1 chain: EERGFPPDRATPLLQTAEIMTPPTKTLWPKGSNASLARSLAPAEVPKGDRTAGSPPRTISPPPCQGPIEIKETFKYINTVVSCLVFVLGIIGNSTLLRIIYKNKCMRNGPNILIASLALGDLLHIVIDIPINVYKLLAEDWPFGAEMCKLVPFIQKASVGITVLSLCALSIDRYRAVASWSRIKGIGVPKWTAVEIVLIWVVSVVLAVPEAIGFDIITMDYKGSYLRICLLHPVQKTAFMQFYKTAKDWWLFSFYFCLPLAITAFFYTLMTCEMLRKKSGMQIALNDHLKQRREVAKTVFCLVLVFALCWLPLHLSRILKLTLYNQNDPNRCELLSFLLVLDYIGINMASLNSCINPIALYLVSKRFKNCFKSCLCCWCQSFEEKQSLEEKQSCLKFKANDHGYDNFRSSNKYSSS
# Test: FACS
row,Binder,Kd
1,B1,6 nM
2,B2,3.04 nM
3,B3,4.19 nM and 3.5 nM

# — article PMC10760395 (2023)
